Test results: patent publication US10208121B2, “Anti-Axl antagonistic antibodies” (BERGEN TEKNOLOGIOVERFORING AS, priority 2014, dated 2019)
Entries after “also recorded” stand apart in the source; their conditions may differ.

Test system: Gas6-mediated Axl signalling (phosphorylation of Akt on Ser^473)
Experiment: Gas6-induced Axl downstream signalling, Western blot of phospho-Akt (Ser^473)
Type: cell-based, human
Details: HeLa cells, 1 μg/mL antibody for 1 hr, then mouse Gas6 10 μg/mL for 20 min
Method: Western blot analysis illustrating inhibition of Gas6-mediated Axl signalling in the presence of mouse monoclonal antibodies 10C9 and 10G5. Phosphorylation of Akt on Ser^473 was used as surrogate readout for Axl activity. M, molecular weight markers. Immunoblots of total cell lysates were probed with anti-phospho-Akt (Ser^473), or anti-GAPDH (glyceraldehyde 3-phosphate dehydrogenase) as loading control.
The experiments were performed using human cervical cancer derived cell line HeLa (ATCC® CCL-2™). The cells were grown in T175 flasks to 80% confluency in MEM culture medium (Sigma) supplemented with 10% FBS, penicillin-streptomycin and L-glutamine. The cells were washed with PBS and detached by treatment with 0.25% Trypsin/EDTA (Sigma) followed by centrifugation and resuspension in fresh medium (MEM/0.5% FBS). The cells were seeded in Petri dishes (3×10^6 cells per dish) in MEM medium supplemented with 10% FBS. After three hrs incubation at 37° C., the cells were washed with PBS and kept in starvation medium (MEM/0.5% FBS) overnight. The cells were pre-incubated with anti-Axl antibody 10C9 or 10G5 at concentration 1 μg/mL for 1 hr followed by stimulation with Axl ligand, recombinant mouse Gas6 (R&D Systems), at concentration 10 μg/mL for 20 min. […] Detection with anti-GAPDH antibody (Millipore) was used as loading control.

B1: 10C9: mouse anti-Axl monoclonal antibody from hybridoma UT-10C9-B9, IgG2b; VH SEQ ID NO: 3, VL SEQ ID NO: 4 (antibody, listed as Mus musculus, V domains shown)
VH: QVQLQQPGPELVKPGASVKISCKTSDYNFTRYYIHWVKQRPGQGLEWIGWIYPGTGDSKYNEKFKGRATLTADTSSSTAYMQLSSQTSEDSAVYFCARNGNYWYFDVWGAGTAVTVSS
VL: DIVMTQAAPSGPVTPGESVSISCRSSKSLLHSNGNTYLYWFLQRPGQSPQLLIYRMSNLASGVPDRFSGSGSGTAFTLRISRVEAEDVGIYYCMQHREYPFTFGGGTKLEIK
Gas6-induced phosphorylation of Akt on Ser^473: significantly reduces; also recorded: significantly be reduced
